According to US9371374 (AbbVie / Abbott, dated 2016):
Where a chain is given by its changes, count along the chain named.

B1: HCV 208B-189 (antibody, V domains shown)
VH: QVHLQQSGAELAKPGASVQMSCKASGYTFTANKMHWARQRPRQGLEWIGYIDPASGYTEYNQKIKDRATLTADKSSSTAYMQLSSLTSEDSAVYYCTNFAYWGQGTLVTVST
VL: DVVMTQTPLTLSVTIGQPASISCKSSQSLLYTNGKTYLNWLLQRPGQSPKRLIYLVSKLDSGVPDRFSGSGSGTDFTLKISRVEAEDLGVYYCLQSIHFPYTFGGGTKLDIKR
B2: HCV 208B-589 (antibody, V domains shown)
VH: QVQLQQSGAGLAKPGASVKMSCKASGYTFTANKMHWAKQRPGQGLEWIGYIDPSSGYTEYNHKIQDKATLTADTSSSTAYMQLSSLTFEDSAVYYCTNFAYWGQGTLVTVSA
VL: DIVMTQTPLTLSVTIGQPASISCKSSQSLLFTNGKTYLNWFLQRPGQSPKRLIYLLSKLDSGVPDRFSGSGSGTDFTLKISRVEAEDLGVYYCLQSTYFPLTFGAGTKLELKR
B3: HCV 208B-547 (antibody, V domains shown)
VH: B2 VH with G10E, A31S, H62Q, Q65K, T74K, F88S
VL: EVVLTQSPAITAASLGQKVTITCRASSSVSYMHWYRQKSGTSPQPWIYEISTLASGVPTRFRASGSGTSYSLTISSMEAEDAAIYYCQQWNYPLTFGAGTKLELKR
B4: HCV 208B-174 (antibody, V domains shown)
VH: EVKLEESGGGLVQPGGSMKLSCVASGFSFSSYWMSWVRQSPEKGLDWVAEIRLRSDNYATHYAESVKGRFTISRDDSISRLYLQMNTLRAEDTGIYYCTWMTYWGQGTLVTVSA
VL: QNVLTQSPAIMSASPGEKVTMSCSASSSVTYMFWYQLKPESSPRLLIYDTSNLASGVPVRFSGSGSGTSYSLTISRMEAEDAATYYCQEWSSYPLTFGAGTKLDLKR
B5: HCV 208A-638 (antibody, V domains shown)
VH: QGQLQQPGAEFVKPGASLKLSCRASGYTFTSYWIHWVKQRPGQGLEWIGEVDPSDSYINQNEKFRGKATLTVDKSSSTAYMQLGSLTSEDSAVYYCARHYYGVLDSWGQGTALTVSS
VL: QIVLTQSPTIMSASLGERVTMTCTASSSVSSSYLHWFQQKPGSSPKLWIYSTSNLASGVPPRFSGSGSGTSYSLSISSVEAEDVATYYCLQFHRSPWTFGGGAKLEIKR
B6: HCV 208B-560 (antibody, V domains shown)
VH: EVQLQQSGPELEKPGASVKISCKTSGYTFTEYAMHWVKQSHGMSLEWIGGINPSNGNAIYNQIFKDKATLTVDRSSSTAYMGLRSLTFGDSGVYFCVRRQLDFFDYWGQGASLTVSS
VL: DIVVTQSPASLAVSLGQRATISCRASQSVSTSRYSYLHWYQQKPGQPPKLLIKYASNLESGVPARFSGSGSGTDFTLNIHPVGEEDTATYYCQHSWEFPFTFGSGTKLEIKR
B7: HCV 208A-920 (antibody, V domains shown)
VH: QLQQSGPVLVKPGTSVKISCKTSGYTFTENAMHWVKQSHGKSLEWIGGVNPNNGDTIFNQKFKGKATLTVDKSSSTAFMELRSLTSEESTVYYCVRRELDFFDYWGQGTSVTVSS
VL: B6 VL with V4L, L37M, G83A, T89A
B8: HCV 208A-830 (antibody, V domains shown)
VH: EVRLQQPGPEVEKPGASVKISCKTSGYTFTEYAIHWVKQSHGESLEWIGGINPSNGDPIYNQIFKDKATLTVDRSSNTAYMGLRSLTVGDSGVYFCVRRQLDYFDFWGQGASLTVSS
VL: B6 VL with V4L, A25S, T87P
B9: HCV 208A-1064 (antibody, V domains shown)
VH: EVQLQQSGPELVKPGASVKISCKTSGYTFTEYAMHWMKQSHGKSLEWIGGINPTNGDTIYNQKFKDKAKLTVDRSSSTAYMELRSLTSDDSALFYCARRELDYFASWGQGTTLTVSS
VL: B6 VL with V4L, A12I, R18T, Y34F, Y40I, A64V, G83E, Y91F, E109K
B10: HCV 208A-222 (antibody, V domains shown)
VH: B6 VH with K19R, M43K, S54N, F103Y
VL: B6 VL
B11: HCV 208B-556 (antibody, V domains shown)
VH: QLQQSGPVLVKPGASVMISCKTSGYTFTENAMHWVKQSHGKSLEWIGGVNPNNGDTIFNQKFKGKATLTVDKSSSTAFMEFRSLTSEESTVYYCVRRELDFFDYWGQGTSVTVSS
VL: B6 VL with V4L, L37M, G83A
B12: HCV 208A-334 (antibody, V domains shown)
VH: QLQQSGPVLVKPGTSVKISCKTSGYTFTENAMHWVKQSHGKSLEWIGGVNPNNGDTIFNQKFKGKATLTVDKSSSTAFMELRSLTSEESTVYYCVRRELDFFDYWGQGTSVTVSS
VL: B6 VL with V4L, L37M, G83A, T89A, E97G
B13: HCV 208A-605 (antibody, V domains shown)
VH: B6 VH with M34I
VL: B6 VL
B14: HCV 208A-133 (antibody, V domains shown)
VH: B11 VH with K11G, K36E
VL: B6 VL with V4L, L37M, G83A
B15: HCV 208B-251 (antibody, V domains shown)
VH: B11 VH with M17K, F58Y, F81L, T90P, Y93F
VL: B6 VL with V4L, Q17K, R18K, L37M, Q46H, G83A, T89A
B16: HCV 208A-159 (antibody, V domains shown)
VH: B11 VH with V8A, L9Q, G64D, T67A, F81L
VL: B6 VL with V4L, L37V, S56A, G83A, T87A, T89A
B17: HCV 208B-1094 (antibody, V domains shown)
VH: B9 VH with K63R
VL: DIVLTQSPASLIVSLGQTATISCRASQSLSTSRFSYVHWIQQKPGQPPKLLIKYASNLESGVPVRFSGSGSGTDFTLNIHPVEEEDTATYFCQHSWEFPFTFGSGTKLKIKR
B18: HCV 208A-877 (antibody, V domains shown)
VH: QLQQSGPELVKPGASVKISCKTSGYTFTENAMHWVKQSRGKSLEWIGGVNPNNGDTVYTQKFKGKATLTVAKSSSTAYMELRTMTCEESTVYYCASREPDFFDYWGQGSSVTVSS
VL: QIVLTQSPAIMSVSPGEKVSMTCSASSSVTYMHWYQQKSGTSPKRWIYDTSELASGVPARFSGSGSGTTYSLTISSMEAEDAATYYCQQWSNKPLTFGAGTKLELKR
B19: HCV 208A-352 (antibody, V domains shown)
VH: QGQMQQSGAELVKPGASVKLSCKTSGFTFSSSFISWLKQKPGQSLEWIAWIYAGTGNTNYNQKFTDKAQLTVDTSSSTAYMQFSSLTTEDSAIYYCAISGTGFTYWGQGTLVTVSA
VL: DVLMAQTPLSLPVTLGDQASISCRSSQSLVHSNGNTYLEWFLQKPGQSPKLLIYNVSNRFSGVPDRFSGSGSGTDFTLKISRVEAEDLGVYYCFQGSHVPLTFGSGTKLEIKR
B20: HCV 208B-471 (antibody, V domains shown)
VH: QGQLQQSGPVLVKPGASEILYCKTSGFTFSSTYISWLKQKPGQSLEWIAWIYAGTGATNYNQKFTGKAQLTVDASSNTAYMHFSGLTPEDSAIYYCAISGAGVYWGQGTLVTVSA
VL: B19 VL with L3V, A5T, T14S, V30L, F41Y, K50N, T77A, E84G, S105A, I111L
B21: HCV 208B-1024 (antibody, V domains shown)
VH: EVQLVESGGDLVKPGGSLKLSCAASGFTFSNYGMSWVRQTPDKRLEWVATISSGGSYSYYPDSVKGRFTISRDNAKNILYLQMSSLKSEDTAMYYCASLYYGYGDYWGQGTAFTVSS
VL: B19 VL with A5T, T14S, L29I, F41Y, P45L, N55R, L101W, S105G
B22: HCV 208A-134 (antibody, V domains shown)
VH: B19 VH with V12A, F33Y, F83L
VL: EVLMTQSPLSLPVSLGDQASISCRSSQSLEHTNGNTYLEWFLQRPGQPPKLLIYKVSSRFSGVPDRFSGSGSGTDFTLKISRVEAEDLGVYYCFQGSHVPFTFGSGTKLAIKR
B23: HCV 208A-983 (antibody, V domains shown)
VH: B19 VH with F33Y, I34F, N59I, S75A, Y80F, F83L, T88I
VL: B19 VL with A5T, T14N, V30L, L101F, E110A
B24: HCV 208B-281 (antibody, V domains shown)
VH: B19 VH with M4L, F33Y, K40R, N57G, T104I
VL: B19 VL with A5T, T14S, S32N, N55K, L101F
B25: HCV 208B-672 (antibody, V domains shown)
VH: EVKLVESGGSLVQPGGSLKLSCAASGFNFNTYAMSWVRQTPEKRLEWVAYISNGGGNTYYVDTVKGRFTISRDNAKNTLYLRMSSLKSEDTAMYYCARHGLYWGYSMDYWGQGTSVTVSS
VL: DIQMTQSPSSLSASLGERVSLTCRASQDIGGSINWLQQEPDGTIKRLIYATSSLDSGVPKRFSGSRSGSDYSLTISSLESEDFVDYYCLQYASSPPTFGGGTKLEIKR

Biological target: HCV Core 134-171-TT peptide (ALRZ-9 peptide) (HCV-1)
Test: SPR, captured mAb;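 further: Anti-HCV Core mAbs from hybridoma supernatants held on a rabbit anti-mouse IgG CM5 surface, peptide flowed over 3 min then 4 min dissociation, duplicate concentrations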
Procedure: First, after pre-treating a CM5 Series S biosensor chip (GE Healthcare) with duplicate injections of 100 mM HCl, 50 mM NaOH, and 0.1% SDS, a rabbit anti-mouse IgG Capture Biosensor was created by amine-coupling rabbit anti-mouse IgG antibody (GE Healthcare, Piscataway, N.J.) on Spots 1, 2, 4, and 5 in all four flow cells of the biosensor chip via EDC/NHS/ethanolamine chemistry provided in an Amine Coupling Kit (GE Healthcare). Clarified anti-HCV Core antibody exhausted hybridoma supernatants and HCV Core peptide were diluted into a filtered buffer composed of 10×HBS-EP+ buffer (GE Healthcare; hereinafter "running buffer") diluted 10-fold into distilled H_2O, supplemented with 0.1% BSA and 0.1% CM-Dextran, and 0.2 μm filtered. Each HCV Core antibody supernatant was diluted 1:1 with running buffer and 0.2 μm filtered again. […] All antigen solutions were 0.2 μm filtered prior to use.
After all the spots contained captured antibody, the flow rate was increased to 30 μL/minute and the biosensor was equilibrated at this new flow rate for 2 minutes; then, a 3 minute injection (90 μL) of HCV Core peptide followed by 4 minutes of running buffer. All biosensor surfaces were regenerated with one 30 μL injection of 10 mM glycine, pH 1.7 (GE Healthcare), at a flow rate of 10 μL/minute. All concentrations were tested in duplicate.

Binder	Kd [nM]	koff [s⁻¹]	kon [M⁻¹ s⁻¹]
B1	0.17	0.00015	880000
B2	0.63	0.00061	960000
B3	3.2	0.0049	1.6e+06
B4	0.25	0.00018	760000
B5	0.2	0.00053	2.7e+06
B6	0.23	0.00026	1.1e+06
B7	0.39	0.00056	1.5e+06
B8	0.16	0.00054	3.4e+06
B9	0.21	0.00034	1.6e+06
B10	0.31	0.00035	1.1e+06
B11	0.4	0.0006	1.5e+06
B12	0.34	0.00057	1.7e+06
B13	0.43	0.00037	870000
B14	0.41	0.0005	1.2e+06
B15	0.58	0.00065	1.1e+06
B16	0.45	0.00065	1.4e+06
B17	0.16	0.00025	1.5e+06
B18	2.2	0.0024	1.1e+06
B19	0.52	5.4e-05	100000
B20	0.25	5.5e-05	220000
B21	15	0.014	1e+06
B22	2.1	3.8e-05	18000
B23	0.46	4.6e-05	97000
B24	96	0.00025	2200
B25	0.16	0.00034	2.2e+06
